# Reference: patent US20240067947
# T1: VWF-73 FRETS substrate, P04275
# T1 chain: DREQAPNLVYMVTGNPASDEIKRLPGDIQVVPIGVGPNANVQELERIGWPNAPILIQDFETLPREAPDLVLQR
# Molecular target: T1, VWF-73 FRETS substrate, P04275
Protein,ADAMTS13 activity (VWF-73 FRETS assay),ADAMTS13 specific activity of mrADAMTS13 released from PLGA microparticles (FRETS VWF-73 fluorescent emission)
mrADAMTS13 (truncated modified human recombinant ADAMTS13) (protein) AAGGILHLELLVAVGPDVFQAHQEDTERYVLTNLNIGAELLRDPSLGAQFRVHLVKMVILTEPEGAPNITANLTSSLLSVCGWSQTINPEDDTDPGHADLVLYITRFDLELPDGNRQVRGVTQLGGACSPTWSCLITEDTGFDLGVTIAHEIGHSFGLEHDGAPGSGCGPSGHVMASDGAAPRAGLAWSPCSRRQLLSLLSAGRARCVWDPPRPQPGSAGHPPDAQPGLYYSANEQCRVAFGPKAVACTFAREHLDMCQALSCHTDPLDQSSCSRLLVPLLDGTECGVEKWCSKGRCRSLVELTPIAAVHGRWSSWGPRSPCSRSCGGGVVTRRRQCNNPRPAFGGRACVGADLQAEMCNTQACEKTQLEFMSQQCARTDGQPLRSSPGGASFYHWGAAVPHSQGDALCRHMCRAIGESFIMKRGDSFLDGTRCMPSGPREDGTLSLCVSGSCRTFGCDGRMDSQQVWDRCQVCGGDNSTCSPRKGSFTAGRAREYVTFLTVTPNLTSVYIANHRPLFTHLAVRIGGRYVVAGKMSISPNTTYPSLLEDGRVEYRVALTEDRLPRLEEIRIWGPLQEDADIQVYRRYGEEYGNLTRPDITFTYFQPKPRQAKGELGTELGSEGKPIPNPLLGLDSTRTGHHHHHH,demonstrated enhanced activity of mrADAMTS13 compared to truncated wild type ADAMTS13,This data demonstrates active ADAMTS13 enzyme is present in all samples including at 120 hours
Truncated wild-type ADAMTS13 (protein) AAGGILHLELLVAVGPDVFQAHQEDTERYVLTNLNIGAELLRDPSLGAQFRVHLVKMVILTEPEGAPNITANLTSSLLSVCGWSQTINPEDDTDPGHADLVLYITRFDLELPDGNRQVRGVTQLGGACSPTWSCLITEDTGFDLGVTIAHEIGHSFGLEHDGAPGSGCGPSGHVMASDGAAPRAGLAWSPCSRRQLLSLLSAGRARCVWDPPRPQPGSAGHPPDAQPGLYYSANEQCRVAFGPKAVACTFAREHLDMCQALSCHTDPLDQSSCSRLLVPLLDGTECGVEKWCSKGRCRSLVELTPIAAVHGRWSSWGPRSPCSRSCGGGVVTRRRQCNNPRPAFGGRACVGADLQAEMCNTQACEKTQLEFMSQQCARTDGQPLRSSPGGASFYHWGAAVPHSQGDALCRHMCRAIGESFIMKRGDSFLDGTRCMPSGPREDGTLSLCVSGSCRTFGCDGRMDSQQVWDRCQVCGGDNSTCSPRKGSFTAGRAREYVTFLTVTPNLTSVYIANHRPLFTHLAVRIGGRYVVAGKMSISPNTTYPSLLEDGRVEYRVALTEDRLPRLEEIRIWGPLQEDADIQVYRRYGEEYGNLTRPDITFTYFQPKPRQA,demonstrated enhanced activity of mrADAMTS13 compared to truncated wild type ADAMTS13,–
